Reference: patent publication US20190367619A1 (ARGENX, published 2019)

Assays:
[1] = molecular target: T1, TEV-cleaved wild-type recombinant human galectin-10 (soluble, in Fab complexes, or as recombinant galectin-10 … (human, UniProt Q05315 1-142)); experiment: cell-based or functional assay
T1 sequence: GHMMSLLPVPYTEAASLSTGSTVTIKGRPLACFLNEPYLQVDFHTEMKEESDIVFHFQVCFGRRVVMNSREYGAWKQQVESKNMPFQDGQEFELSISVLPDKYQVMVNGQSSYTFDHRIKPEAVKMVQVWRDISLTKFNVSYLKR

[2] = molecular target: T2, human galectin-10-His (recombinant human galectin-10 with TEV-cleavable N-terminal His-tag) (human); experiment: ELISA, scFv-hFc on coated galectin-10-His (0.2 ug/mL)
T2 construct: SEC-MALLS: dimer in solution; also called Gal10-His; humanGal10-His
T2 chain: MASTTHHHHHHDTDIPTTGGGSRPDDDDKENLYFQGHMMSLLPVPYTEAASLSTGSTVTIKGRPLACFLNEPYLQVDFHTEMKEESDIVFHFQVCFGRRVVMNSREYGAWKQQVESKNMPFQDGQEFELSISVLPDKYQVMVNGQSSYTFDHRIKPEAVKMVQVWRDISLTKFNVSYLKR
Method: In a similar setup to that used during the initial screening, the relative binding properties of the 12 scFv-human Fc clones were analyzed by ELISA. Briefly, a Maxisorp plate was coated with galectin-10-His at 0.2 μg/mL and blocked with casein, before being incubated with a serial dilution of the scFv-human Fc fusion molecules. After several washing steps, detection of the bound scFv-human Fc was carried out with an anti-human Fc-HRP antibody. Absorbance was measured at 450 nm (reference at 620 nm) with Tecan instrument. Finally, the raw data (OD values) were plotted on GraphPad Prism 7.01. The EC50 value of each compound was calculated with a non-linear regression (log(agonist) vs. response Variable slope (four parameters)).

[3] = molecular target: T2, human galectin-10-His (recombinant …); experiment: SPR Biacore T3000, scFv-hFc captured by anti-human Fc, galectin-10-His as analyte
Method: In order to determine the binding properties (on-rate/off-rate) of the scFv-human Fc panel, their binding capacity to galectin-10 was analyzed on Biacore T3000. For this purpose, a capture approach was set up. A CM5 Chip was coated with polyclonal anti-human Fc at 8000 RU, then a fixed concentration of the scFv-human Fc panel (1.5 μg/mL), diluted in HBS-EP pH7.4, were captured to reach a binding signal around 150 RU. Finally, a serial dilution of galectin-10-His (serial dilution, 1 over 2 from 5 μg/mL, 6 points of dilution) diluted in HBS-EP pH7.4 was injected. Raw data were analyzed via BIA evaluation software with a blank subtraction (4-3). The kd/KD and Rmax of each scFv-human Fc for galectin-10-His was determined using the Fit Kinetics simultaneous ka/kd/Binding with mass transfer/Local Rmax on BIA evaluation software.

[4] = molecular target: T3, recombinant human galectin-10, TEV-cleaved (human, UniProt Q05315 1-142); experiment: cell-based or functional assay
T3 sequence: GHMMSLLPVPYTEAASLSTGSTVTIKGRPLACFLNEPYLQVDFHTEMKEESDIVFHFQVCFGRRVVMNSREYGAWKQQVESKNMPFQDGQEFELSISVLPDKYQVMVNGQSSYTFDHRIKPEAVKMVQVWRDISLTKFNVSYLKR

human galectin-10-His = molecular target: T4, human galectin-10-His (human); experiment: ELISA, galectin-10-His coated at 1 ug/mL, Fab
T4 construct: The last M of the tag may be Met1 of galectin-10; also called humanGal10-His; hGal10
T4 chain: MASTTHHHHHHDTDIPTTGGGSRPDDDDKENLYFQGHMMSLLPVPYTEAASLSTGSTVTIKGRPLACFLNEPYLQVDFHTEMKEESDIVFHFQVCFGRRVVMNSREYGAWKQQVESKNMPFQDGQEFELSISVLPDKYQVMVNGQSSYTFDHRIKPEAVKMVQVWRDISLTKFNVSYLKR
Method: The binding capacity of the lead anti-galectin-10 Fabs was tested by binding ELISA. Briefly, a Maxisorp plate was coated overnight with 1 μg/mL of human galectin-10-His. Then a serial dilution of each clone (from 4 μM, dilution 1/4, 12 points of dilutions) was incubated on coated galectin-10. After several washing steps, detection of the bound Fab was carried out with an anti-human IgG Fab specific-peroxidase. Absorbance was measured at 450 nm (reference at 620 nm) with Tecan instrument.

Row | Binder | 100% Solubilization of CLC (Conc uM) [1] | Bmax (OD values) [2] | EC50 [2] | Kd [3] | koff [3] | 50% crystal dissolution (min), 50 uM [4] | 90% crystal dissolution (min), 50 uM [4] | Bmax (human galectin-10-His) | EC50 (human galectin-10-His)
1 | 10B02 Fab (Fab, V domains shown, Fab with human CH1 (including part of the hinge region) and human lambda constant domain; also called 10B02 hFab) VH: QVQLVESGGGLVQPGGSLRVSCAASGFTFSYHYMNWVRQAPGKGLEWVSGISAGGGRTYYADSVKGRFTISRDNAKNTLYLQMNSLNAEDTALYYCARVHGITNDYWGQGTQVTVSS VL: QSALTQPPSVSGSPGKTVTISCAGTSSDVGYGNYVSWYQQLPGMAPKLLIYEVNKRASGITDRFSGSKSGNTAFLTISGLQSEDEADYYCASYRNSNNWVFGGGTHLTVL | – | – | – | – | – | 102 min | > 120 min | 0.74 OD | 61.2 nM
2 | 2C07 scFv-human Fc (Fc fusion, about 100 kDa on SDS-PAGE; also called 2C07 ScFv-hFc; not shown: CH2-CH3 constant domains of human IgG1 (vector pUPEX50)) scFv: ELQLVESGGGLVQPGGSLRLSCAASGFTFSSYAMSWVRQAPGKGLEWVSNINSGGGSTGYADSVKGRFTISRDNAKNTLYLQMNSLKPEDMAVYYCAKYLRTYYPNAAFGMDYWGKGTLVTVSSGGGGSGGGGSGGGGSQAVLTQPSAVSVSLGQTARITCQGGNFGRYYASWYQQKPGQAPVLVIYRDSERPSGIPERFSGSSSGDTATLTISGAQAEDEADYYCQSGRSSDNAVFGGGTHLTGL | 6.86 µM | 2.89 OD | 0.05 nM | 0.677 nM | 0.000259 s⁻¹ | – | – | – | –
3 | 8H11 Fab (Fab, V domains shown, Fab with human CH1 (including part of the hinge region) and human lambda constant domain; also called 8H11 hFab) VH: ELQLVESGGGLVQPGGSLRLSCAASGFTFSTNYMNWVRQAPGKGLEWVSGITSGGGRTYYADSVKGRFTISRDNAKNTLYLQMNSLKPEDTALYYCARTDHAWLDAWGQGTLVTVSS VL: QAGLTQPPSVSGTLGKTVTISCAGTSSDVGYGNYVSWYQQLPGTAPKLLIYAVSTRASGIPDRFSGSKSGNTASLTISGLLSEDEADYYCASYRSSNNYVFGGGTKLTVL | – | – | – | – | – | 48.5 min | > 120 min | 0.95 OD | 24.3 nM

Next, values leading:

Row | 100% Solubilization of CLC (Conc uM) [1] | Bmax (OD values) [2] | EC50 [2] | Kd [3] | koff [3] | 50% crystal dissolution (min), 50 uM [4] | 90% crystal dissolution (min), 50 uM [4] | Bmax (human galectin-10-His) | EC50 (human galectin-10-His) | Binder
4 | 4.36 µM | 1.43 OD | 0.14 nM | 1.16 nM | 0.0111 s⁻¹ | – | – | – | – | 2E11 scFv-human Fc (Fc fusion, about 100 kDa on SDS-PAGE; also called 2E11 ScFv-hFc; not shown: CH2-CH3 constant domains of human IgG1 (vector pUPEX50)) scFv: EVQLVESGGGLVQPGGSLRLSCAASGFTFSSYAMSWVRQAPGKGLEWVSPINSGSDSASYVDSVKGRFTISRDNAKNTLYLQMNSLKPEDTAVYYCAKARTSVVAGGMDYWGKGTLVTVSSGGGGSGGGGSGGGGSQSALTQPSAVSVSLGQTARITCQGGKFGSYYVSWYQQKPGQAPVMVIYKDNERPSGIPERFSGSSSGSTSTLTISGAQAEDEGTYYCQSGSSSDNIVFGGGTELTVF
5 | 5.04 µM | 2.43 OD | 0.08 nM | 0.875 nM | 0.018 s⁻¹ | – | – | – | – | 2B11 scFv-human Fc (Fc fusion, about 100 kDa on SDS-PAGE; also called 2B11 ScFv-hFc; not shown: CH2-CH3 constant domains of human IgG1 (vector pUPEX50)) scFv: QVQLQESGPGLVKPSQTLSLTCTVSGGSITTNYYYWSWIRQPPGKGLEWMGAIAYSGSTYYSPSLKSRTSISRDTSKNQFTLQLSSVTPEDTAVYYCARAPYGISREYDYWGQGTQVTVSSGGGGSGGGGSGGGGSHSAVTQPSAVSVSLGQTARITCQGGKFGRYYASWYQQKPGQAPVLVIYKDSERPSGIPERFSGSSSGDTATLSISGAQAEDEADYFCQSGRSSDNAVFGGGTHLTVL
6 | – | – | – | – | – | 59.7 min | > 120 min | 1.03 OD | 16.1 nM | 10D02 Fab (Fab, V domains shown, Fab with human CH1 (including part of the hinge region) and human lambda constant domain; also called 10D2; 10D02 hFab) VH: EVQLVESGGGLVQPGGSLRVSCAASGFTFSSYYMSWVRQAPGKGLEWVSGIVTGGGRTHYTDSVKGRFTITRDNAKNTLYLQMNSLRPEDTALYYCARVNGVVTNYDYWGQGTQVTVSS VL: QAVLTQPPSVSGSPGKTVTISCAGTSSDVGYGNYVSWYQQLPGMAPKLLIYDVNKRASGITDRFSGSKSGNTASLTISGLQSEDEADYFCASYRSPNNVVFGQGTHLTVL
